Measured values reported in the supplement of paper PMC10567573.
± gives the standard deviation.

Assay: protein stability index of a GFP-peptide fusion (GPS, HEK-293T) (PSI 1-6); higher = more stable
Settings: c terminus: a fixed tail appended
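Further: 24-mer peptide tiles fused after GFP, lentivirally expressed, FACS-sorted into six equal bins by GFP/DsRed ratio, decoded by Illumina sequencing, PSI is the read-weighted mean bin number.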

Sequence | protein stability index (treatment: DMSO) | protein stability index (treatment: MLN4924 1 uM, 8 h)
LLQQNKSIQSLTLEWNSLGTWDDA [LRRC45] | 2.65 ± 0.094 | 2.64 ± 0.42
LLTITKAHSNAISNCCFTFSGHFL [WDR88] | 3.12 ± 1.1 | 2.59 ± 0.48
LLYLLHILLLDGAAWLTLWVFGTS [FADS1] | 3.38 ± 0.24 | 2.49 ± 0.25
LLYSEVTASSLVKINLQGDIVDRG [ADD1] | 2.85 ± 0.52 | 2.42 ± 0.42
LMELDMAMEPDRKAAVSHWQQQSY [CTNNB1] | 3.11 ± 0.19 | 3.33 ± 0.37
LMGEIAKATFMYEQFPELMNMLWS [CLINT1] | 2.61 ± 0.62 | 2.33 ± 0.32
LMHIAHIAELLEVFDLRMMVANIL [RHOBTB2] | 2.48 ± 0.4 | 2.31 ± 0.32
LMKKIGQCPMRVQKEVAGFVLNRL [CRYL1] | 2.34 ± 0.38 | 2.53 ± 0.24
LMLELKSLQEEPVEGFRITLVDES [UBE2R2] | 2.6 ± 0.39 | 2.77 ± 0.17
LMNDVIDTSGFPDLSDNRNEDPLV [FBXO33] | 4.85 ± 0.17 | 4.9 ± 0.18
LNDISRKSEGLSGRVLRKLPFLAH [TRIP13] | 2.11 ± 0.27 | 2.57 ± 0.55
LPEWISCLIQKAQWTVGKLNCPFC [RNF180] | 2.22 ± 0.19 | 2.31 ± 0.087
LPLAEREHVSRALCIHTGRELRCK [TRIB1] | 3.99 ± 0.32 | 3.93 ± 0.2
LPLMDLCRRSIRSALGRQRLQDIS [SPSB4] | 2.62 ± 0.12 | 2.53 ± 0.34
LPMWSNQTWNNSTWSNQTQNIQSW [NANOGP8] | 2.45 ± 0.38 | 2.56 ± 0.27
LPPDALIIEYRGKFMLREQFEANG [KMT2E] | 2.57 ± 0.31 | 2.63 ± 0.18
LPPQYVDDVISRIDRMFPEMSIHL [MED27] | 2.19 ± 0.087 | 2.29 ± 0.29
LPRRRGLRKKKTTKLRLERVKFRR [NEUROD6] | 3.85 ± 0.27 | 3.97 ± 0.29
LPSLSCRTSCSSRPCVPPSCHGYT [KRT33B] | 2.1 ± 0.11 | 2.09 ± 0.36
LPSSGEGLAFFTFPNIASATKFKQ [HMOX1] | 2.75 ± 0.43 | 2.87 ± 0.18
LPSVTDIRRPRLYLLQWLKSDKAL [PLK2] | 2.33 ± 0.24 | 2.36 ± 0.49
LQKDLETRPTQHELRLYKQQVKKL [CEP70] | 4.19 ± 0.2 | 4.42 ± 0.37

Sequence | protein stability index (treatment: DMSO) | protein stability index (treatment: MLN4924 1 uM, 8 h)
LQKKLDNLQCLYCEKTFRDKNTLK [ZNF277] | 2.64 ± 0.25 | 2.86 ± 0.3
LRDTYKLWVPQPPPRTIKRTRRRL [PWWP2B] | 3.46 ± 0.19 | 3.64 ± 0.21
LREIRMLKQLKHPNLVNLIEVFRR [CDKL4] | 2.31 ± 0.3 | 2.13 ± 0.67
LRFSGVNDTDFRVYLLGNPVVWWL [POMT2] | 2.85 ± 0.43 | 2.96 ± 0.6
LRGKSIKRAPGEETEKEEEEEDRE [NEUROD6] | 5.66 ± 0.45 | 5.67 ± 0.3
LRKKKTTKLRLERVKFRRQEANAR [NEUROD6] | 3.59 ± 0.34 | 3.59 ± 0.27
LRPQRTKQYVLLSILLCLLASGLV [TMEM106C] | 3.11 ± 0.38 | 2.9 ± 0.26
LRQRESKWLDMLNNWDKWMAKKHK [TBC1D10A] | 2.9 ± 0.24 | 3.2 ± 0.41
LSEALKEATKEVHTQAENAEFMRN [HMOX1] | 4.92 ± 0.1 | 5.01 ± 0.48
LSELPPLEDMGQPPAEEAEQPGAL [FKBP8] | 5.59 ± 0.18 | 5.72 ± 0.24
LSGGLGAGSCRLGSAGGLGSTLGG [KRT17] | 2.47 ± 0.23 | 2.37 ± 0.28
LSIVLERMRYEGVVDIFQTVKMLR [PTPRD] | 2.1 ± 0.48 | 2.42 ± 0.58
LSLLTNRGSKMFKLRQMRVEKFIY [MYOZ1] | 2.13 ± 0.34 | 2.38 ± 0.14
LSLRQTGSPGMIYSTRYGSPKRQL [KCNAB2] | 2.98 ± 0.51 | 3.17 ± 0.31
LSQPTTNLVAGCLQLNARSFMMGQ [NEUROD6] | 2.31 ± 0.17 | 2.21 ± 0.26
LSSWELEAWYEDLQEVLSSDENGG [DDIT3] | 3.19 ± 0.39 | 3.29 ± 0.34
LSVIQMVAFLEQRASALLASCSKN [FBXO34] | 2.81 ± 0.35 | 2.71 ± 0.71
LTEIYRIVSQKQIADRAAHDESPG [RAB11B] | 3.52 ± 0.12 | 3.52 ± 0.27
LTISAAFNIVYIYTSELYPTVIRN [SLC22A15] | 3.19 ± 0.14 | 3.13 ± 0.33
LTRRLAHGEELRVSARSREGRGGR [HAGHL] | 4.87 ± 0.22 | 4.99 ± 0.079
LTVRLHTQSVSECITEDGRTVAVG [PWWP2B] | 3.2 ± 0.33 | 3.15 ± 0.044
LVENDQQLQKILSIPQSSLEPLKA [ACSBG2] | 3.66 ± 0.34 | 3.99 ± 0.41

Sequence | protein stability index (treatment: DMSO) | protein stability index (treatment: MLN4924 1 uM, 8 h)
LVETNRREVEQWFATQTEELNKQV [KRT33B] | 4.41 ± 0.21 | 4.49 ± 0.31
LVGDSDVGKGEILASLQDGAAESP [RAB40B] | 5.18 ± 0.17 | 5.36 ± 0.32
LVKNLKDTLGLGKTRRKTSARDAS [NCK2] | 3.19 ± 0.38 | 3.35 ± 0.3
LVVPNKGYSSLDQSPDEKPLVALD [FAM219A] | 4.45 ± 0.17 | 4.42 ± 0.25
LWAGSKGKEFGYFPRDAVQIEEVF [MIA2] | 2.66 ± 0.51 | 2.77 ± 0.46
LYNMDLSDDHIRVIVQLHKLRHLD [ZER1] | 2.25 ± 0.38 | 2.56 ± 0.37
LYRGLAPNFMKVIPAVSISYVVYE [SLC25A25] | 2.71 ± 0.67 | 3.25 ± 0.51
LYRTLFSVINNGHNQKVHMHMVDL [PDS5B] | 2.73 ± 0.56 | 2.77 ± 0.77
LYTGELDENERDLMHIAHIAELLE [RHOBTB2] | 2.69 ± 0.33 | 3.09 ± 0.34
LYWRDIKQTGIVFGSFLLLLFSLT [RTN1] | 2.52 ± 0.22 | 2.35 ± 0.23
MAAGSEPESVEASPVVVEKSNSYP [KMT2E] | 5.3 ± 0.11 | 5.19 ± 0.24
MAEISRIQYEMEYTEGISQRMRVP [MFF] | 2.67 ± 0.3 | 2.79 ± 0.6
MAGRPHPYDGNSSDPENWDRKLHS [BTBD10] | 4.63 ± 0.086 | 4.71 ± 0.088
MALPFFSLAEVRVGYQSQNISCFF [MYORG] | 3.15 ± 1.1 | 3.11 ± 0.89
MASNERDAISWYQKKIGAYDQQIW [PHTF1] | 2.51 ± 0.39 | 2.55 ± 0.16
MDNYADLSDTELTTLLRRYNIPHG [EMD] | 3.19 ± 0.11 | 3.37 ± 0.15
MDSGCWLFGGEFEDSVFEERPERR [C8orf76] | 4.06 ± 0.33 | 4.29 ± 0.27
MEAMAASTSLPDPGDFDRNVPRIC [VDR] | 4.53 ± 0.11 | 4.53 ± 0.19
MEEASEGGGNDRVRNLQSEVEGVK [VAMP8] | 5.49 ± 0.19 | 5.38 ± 0.16
MERARDRLHLRRTTEQHVPEVEVQ [SNURF] | 4.77 ± 0.2 | 4.72 ± 0.06
MFGLVIPLGVLQAIAMYFLPPSPR [SLC2A12] | 2.46 ± 0.64 | 2.53 ± 0.64
